# Source: publication PMC6697748, “Ca^2+-regulated Ca^2+ channels with an RCK gating ring control plant symbiotic associations” (Nature Communications, 2019)
# B1: LjCASTOR soluble domain (residues 312-853) (domain or fragment, Lotus japonicus, UniProt Q5H8A6 312-853, looked up)
# chain: KGKSEVVEQNHTLILGWSDKLGSLLNQLAIANESLGGGTIAVMAERDKEDMELDIGKMEFDFKGTSVICRSGSPLILADLKKVSVSKARTIIVLAEDGNADQSDARALRTVLSLTGVKEGLRGHIVVEMSDLDNEVLVKLVGGDLVETVVAHDVIGRLMIQCARQPGLAQIWEDILGFENCEFYIKRWPQLDGMLFEDVLISFPAAIPCGIKVASYGGKIILNPDDSYVLQEGDEVLVIAEDDDTYAPAPLPMVRRGSLPKDFVYPKSPERILFCGWRRDMEDMITVLDASLAPDSELWMFNDVPEKEREKKLIDGGLDISRLENISLVNREGNAVIRRHLESLPLESFDSILILADESVEDSAIQADSRSLATLLLIRDIQARRLPYVAMASQTQGGNFSKGSWIGEMKQASDKTVIISEILDPRTKNLLSMSKISDYVLSNELVSMALAMVAEDRQINDVLEELFAEEGNEMHIRQADIYLREGEEMSFYEIMLRARQRREILIGYRLANAERAVINPPAKTGRRKWSLKDVFVVITEKE
# notes: CASTOR ion channel from Lotus japonicus, soluble domain after the transmembrane region, residues 312-853; two tandem RCK domains (RCK1 320-552, linker 553-580, RCK2 581-853); Cloned into pQE60 with a C-terminal hexahistidine tag; no removal of the tag is described; A selenomethionine-substituted form was used for phasing only; Residues 699-726 have no electron density; also called LjCASTOR RCK …
# Molecular target: the molecule itself
# Test: crystal structure; Ca2+-bound state: protein purified with 1 mM CaCl2 in 50 mM Tris-HCl pH 8.0, 250 mM NaCl; crystals in 21% PEG 550 MME, 50 mM MgAc2, 100 mM Tris pH 8.2, 20 °C; space group I4, one subunit per asymmetric unit, tetramer by crystallographic fourfold; 1.6 Å
protein,measurement,value
B1,stoichiometry N,4
